{"source": "patent US20200270347A1", "assay_in_all_cases": "SPR, TYRP1 ECD-Fc captured with anti-PGLALA antibody, 1:1 Langmuir", "key": {"[1]": {"molecular_target": "Cynomolgus TYRP1 ECD-Fc(knob)-Avi / Fc(hole) (cynomolgus) [IgG part: P01857]"}, "[2]": {"molecular_target": "Human TYRP1 ECD-Fc(knob)-Avi / Fc(hole) (human) [IgG part: P01857]"}, "[3]": {"molecular_target": "Mouse TYRP1 ECD-Fc(knob)-Avi / Fc(hole) (mouse) [IgG part: P01857]"}}, "note": "pKd: −log10 of the molar value.", "data": [{"substance": "parental TA99 antibody (Fab)", "values": [{"measurement": "pKd", "setting": "[1]", "value": 9.92}, {"measurement": "pKd", "setting": "[2]", "value": 10.05}, {"measurement": "pKd", "setting": "[3]", "value": 9.51}]}]}
